Molecular target: EV A71病毒样颗粒(VLP) (Enterovirus A71)
Assay: sandwich ELISA: rabbit anti-EV A71 VLP serum as capture, VLP titrated, antibody 1.2 ng/ul as detector, positive at OD450>0.15

B1: 肠道病毒A71单克隆抗体 1G10 (antibody, V domains shown)
VH: EVKLVESGGGLVKPGGSLKLSCAASGFTFSSYVMSWVRQTPEKRLEWVASISNGGSTFYPDSVKGRLTISRDNARNILYLQMSSLRSEDTAMYYCARAYGNDWYFDVWGAGTTVTVSS
VL: DIQMTQTTSSLSASLGDRVTISCRASQDISNYLNWYQQKPDGTVKLLIYYTSRLNSGVPSRFSGSGSGTDYSLTISNLEEEDIATYFCQQGNTAWTFGGGTKLEIKR
  最低检出限度: 3.12 ng/mL
